Among the data in patent US20170072028A1 are glucose-stimulated insulin secretion assay on isolated murine islets (enhancement of insulin secretion values, retold here.

This assay addresses C3aR1 (C3a receptor) on mouse pancreatic islet cells (mouse) (UniProt O09047). In words: cell-based or functional assay.

Chain of C3aR1 (C3a receptor) on mouse pancreatic islet cells (mouse) (O09047 whole entry): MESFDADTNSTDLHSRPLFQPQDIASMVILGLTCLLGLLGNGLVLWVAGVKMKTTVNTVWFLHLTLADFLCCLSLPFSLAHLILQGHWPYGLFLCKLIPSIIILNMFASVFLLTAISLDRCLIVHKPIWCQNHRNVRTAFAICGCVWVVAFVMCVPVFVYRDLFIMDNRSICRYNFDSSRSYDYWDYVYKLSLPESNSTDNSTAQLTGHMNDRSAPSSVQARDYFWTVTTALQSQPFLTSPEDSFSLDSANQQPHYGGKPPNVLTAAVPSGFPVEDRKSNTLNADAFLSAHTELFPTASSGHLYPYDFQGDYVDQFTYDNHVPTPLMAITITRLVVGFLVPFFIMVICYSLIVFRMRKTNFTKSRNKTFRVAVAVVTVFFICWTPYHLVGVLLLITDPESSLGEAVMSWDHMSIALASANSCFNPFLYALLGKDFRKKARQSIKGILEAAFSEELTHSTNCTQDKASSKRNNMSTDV

As for Recombinant C3a protein (ligand), the glucose-stimulated insulin secretion assay on isolated murine islets (enhancement of insulin secretion at high glucose) lay in the range of 30 to 40%.
